Measurements from article PMC3177407.

Legend:
Integrin α3β1 = Integrin α3β1 (UniProt P26006)
[1] = molecular target: integrin alpha3beta1 (Homo sapiens) (UniProt P26006); conditions: cited from earlier work
Chain of integrin alpha3beta1 (Homo sapiens) (P26006 33-991, chain 1 of 2): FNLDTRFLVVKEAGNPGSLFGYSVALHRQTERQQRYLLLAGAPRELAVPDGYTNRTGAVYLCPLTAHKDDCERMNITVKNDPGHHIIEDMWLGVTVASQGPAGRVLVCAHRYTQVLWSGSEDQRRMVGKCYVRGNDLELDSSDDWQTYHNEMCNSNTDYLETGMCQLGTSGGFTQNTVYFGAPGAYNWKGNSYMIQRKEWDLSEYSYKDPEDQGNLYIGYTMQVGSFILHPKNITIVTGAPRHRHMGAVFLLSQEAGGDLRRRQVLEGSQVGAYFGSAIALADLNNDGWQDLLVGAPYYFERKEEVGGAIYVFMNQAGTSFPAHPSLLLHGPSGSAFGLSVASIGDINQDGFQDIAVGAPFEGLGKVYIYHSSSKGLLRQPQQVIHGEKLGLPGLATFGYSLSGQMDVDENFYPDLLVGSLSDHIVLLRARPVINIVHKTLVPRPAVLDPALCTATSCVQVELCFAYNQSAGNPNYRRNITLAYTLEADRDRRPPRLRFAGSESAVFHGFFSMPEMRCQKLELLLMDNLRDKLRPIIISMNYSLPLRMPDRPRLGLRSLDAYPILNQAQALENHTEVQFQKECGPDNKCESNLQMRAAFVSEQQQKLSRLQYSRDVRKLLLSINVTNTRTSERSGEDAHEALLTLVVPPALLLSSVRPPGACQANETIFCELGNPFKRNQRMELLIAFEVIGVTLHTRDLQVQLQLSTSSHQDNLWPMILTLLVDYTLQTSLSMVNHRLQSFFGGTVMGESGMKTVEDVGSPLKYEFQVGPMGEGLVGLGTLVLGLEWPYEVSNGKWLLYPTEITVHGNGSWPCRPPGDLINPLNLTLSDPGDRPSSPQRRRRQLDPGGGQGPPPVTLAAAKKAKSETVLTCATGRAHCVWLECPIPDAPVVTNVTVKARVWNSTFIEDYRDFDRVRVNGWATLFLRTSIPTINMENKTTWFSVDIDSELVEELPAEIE
Chain of integrin alpha3beta1 (Homo sapiens) (P05556 21-728, chain 2 of 2, further chain): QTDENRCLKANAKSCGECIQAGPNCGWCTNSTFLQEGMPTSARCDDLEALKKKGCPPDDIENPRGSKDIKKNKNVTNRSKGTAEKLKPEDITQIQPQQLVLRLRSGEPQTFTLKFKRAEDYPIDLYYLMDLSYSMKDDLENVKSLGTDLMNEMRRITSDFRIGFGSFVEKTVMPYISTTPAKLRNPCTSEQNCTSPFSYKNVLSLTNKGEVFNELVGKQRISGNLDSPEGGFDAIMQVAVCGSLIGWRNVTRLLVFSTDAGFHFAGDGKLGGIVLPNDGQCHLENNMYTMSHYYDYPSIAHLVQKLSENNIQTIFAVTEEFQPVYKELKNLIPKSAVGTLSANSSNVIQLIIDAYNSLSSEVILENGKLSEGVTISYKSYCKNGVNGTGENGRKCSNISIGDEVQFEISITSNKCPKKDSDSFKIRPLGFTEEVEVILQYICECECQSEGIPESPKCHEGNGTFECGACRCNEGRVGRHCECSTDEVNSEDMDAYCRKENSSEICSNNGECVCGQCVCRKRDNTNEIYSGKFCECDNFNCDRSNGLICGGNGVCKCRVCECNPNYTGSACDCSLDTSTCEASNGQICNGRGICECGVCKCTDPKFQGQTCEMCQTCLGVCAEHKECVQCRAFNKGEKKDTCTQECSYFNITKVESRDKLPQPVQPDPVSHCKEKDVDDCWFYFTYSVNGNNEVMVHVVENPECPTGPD

Chain of Integrin α3β1 (P26006 33-1051, chain 1 of 2): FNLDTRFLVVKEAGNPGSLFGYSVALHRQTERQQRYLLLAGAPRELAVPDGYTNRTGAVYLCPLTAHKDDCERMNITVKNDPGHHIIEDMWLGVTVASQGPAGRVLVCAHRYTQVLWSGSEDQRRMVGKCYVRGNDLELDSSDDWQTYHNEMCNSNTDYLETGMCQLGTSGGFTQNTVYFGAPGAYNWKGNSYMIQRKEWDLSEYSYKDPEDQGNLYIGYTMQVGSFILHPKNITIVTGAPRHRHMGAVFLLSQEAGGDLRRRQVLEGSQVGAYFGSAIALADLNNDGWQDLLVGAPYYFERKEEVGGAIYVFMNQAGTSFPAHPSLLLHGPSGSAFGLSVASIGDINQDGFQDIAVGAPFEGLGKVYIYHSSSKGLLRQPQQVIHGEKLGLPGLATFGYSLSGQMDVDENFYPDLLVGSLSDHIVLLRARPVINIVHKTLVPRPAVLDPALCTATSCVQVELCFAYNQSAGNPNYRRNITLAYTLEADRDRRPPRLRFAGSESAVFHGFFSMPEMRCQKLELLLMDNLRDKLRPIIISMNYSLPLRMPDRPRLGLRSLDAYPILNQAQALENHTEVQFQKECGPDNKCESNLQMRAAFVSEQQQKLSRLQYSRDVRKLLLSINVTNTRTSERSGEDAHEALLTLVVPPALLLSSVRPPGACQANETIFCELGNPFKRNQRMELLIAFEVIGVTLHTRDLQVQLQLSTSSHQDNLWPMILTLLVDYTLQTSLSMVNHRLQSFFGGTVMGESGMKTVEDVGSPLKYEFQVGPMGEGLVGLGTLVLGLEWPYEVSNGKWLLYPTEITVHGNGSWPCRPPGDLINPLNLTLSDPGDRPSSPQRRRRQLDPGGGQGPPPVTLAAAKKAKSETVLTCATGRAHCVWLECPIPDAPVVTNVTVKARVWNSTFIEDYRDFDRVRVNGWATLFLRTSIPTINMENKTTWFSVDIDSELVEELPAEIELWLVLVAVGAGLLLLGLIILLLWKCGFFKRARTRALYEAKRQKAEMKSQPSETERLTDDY
Chain of Integrin α3β1 (P05556 21-728, chain 2 of 2, further chain): as the sequence (P05556 21-728, chain 2 of 2, further chain) above
Chain of TIMP-2 (P16035 27-220): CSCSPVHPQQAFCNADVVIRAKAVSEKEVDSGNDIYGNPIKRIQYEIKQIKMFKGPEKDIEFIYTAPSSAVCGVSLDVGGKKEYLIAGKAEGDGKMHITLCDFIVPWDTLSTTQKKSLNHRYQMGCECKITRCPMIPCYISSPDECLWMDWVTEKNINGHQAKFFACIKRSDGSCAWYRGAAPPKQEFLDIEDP

## Ala+TIMP-2 (from UniProt P16035 27-220) (natural protein)
Integrin α3β1
  inhibition of VEGF-A-stimulated (10 ng/mL) growth of hMVECs, 100 nM protein: 75%

## TIMP-2 (from UniProt P16035)
[1]
  Kd: 0.9 nM
